Experimental data: patent publication US20230002480A1

Experiments:
Experiment in all cases: cell-based or functional assay
[1] = target: HIV-1 Env of pseudovirus 0815.v3.c3 (clade ACD) (HIV-1)
[2] = target: HIV-1 Env of pseudovirus 231965.c01 (clade D) (HIV-1)
[3] = target: HIV-1 Env of pseudovirus 231966.c02 (clade D) (HIV-1)
[4] = target: HIV-1 Env of pseudovirus 3016.v5.c45 (clade D) (HIV-1)
[5] = target: HIV-1 Env of pseudovirus 3103.v3.c10 (clade ACD) (HIV-1)
[6] = target: HIV-1 Env of pseudovirus 3301.v1.c24 (clade AC) (HIV-1)
[7] = target: HIV-1 Env of pseudovirus 3415.v1.c1 (HIV-1)
[8] = target: HIV-1 Env of pseudovirus 3817.v2.c59 (clade CD) (HIV-1)
[9] = target: HIV-1 Env of pseudovirus 6041.v3.c23 (clade AC) (HIV-1)
[10] = target: HIV-1 Env of pseudovirus 6240_08_TA5_4622 (HIV-1)
[11] = target: HIV-1 Env of pseudovirus 6480.v4.c25 (clade CD) (HIV-1)
[12] = target: HIV-1 Env of pseudovirus 6540.v4.c1 (clade AC) (HIV-1)
[13] = target: HIV-1 Env of pseudovirus 6545.v4.c1 (clade AC) (HIV-1)
[14] = target: HIV-1 Env of pseudovirus 6811.v7.c18 (clade CD) (HIV-1)
[15] = target: HIV-1 Env of pseudovirus 6952.v1.c20 (clade CD) (HIV-1)
[16] = target: HIV-1 Env of pseudovirus 89-F1_2_25 (clade CD) (HIV-1)
[17] = target: HIV-1 Env of pseudovirus A07412M1.vrc12 (clade D) (HIV-1)
[18] = target: HIV-1 Env of pseudovirus P1981_C5_3 (clade G) (HIV-1)
[19] = target: HIV-1 Env of pseudovirus Q23.17 (HIV-1)
[20] = target: HIV-1 Env of pseudovirus REJO4541.67 (HIV-1)
[21] = target: HIV-1 Env of pseudovirus X1632_S2_B10 (clade G) (HIV-1)
[22] = target: HIV-1 Env of pseudovirus X2131_C1_B5 (clade G) (HIV-1)

N49P7 (antibody) showed an IC50, neutralization titer in TZM.bl cells [1] of 0.016 µg/mL, an IC80, neutralization titer in TZM.bl cells [1] of 0.053 µg/mL and an MPI, neutralization in TZM.bl cells [1] of 100. It also gave an IC50, neutralization titer in TZM.bl cells [2] of 0.054 µg/mL, an IC80, neutralization titer in TZM.bl cells [2] of 0.193 µg/mL and an MPI, neutralization in TZM.bl cells [2] of 100. It also gave an IC50, neutralization titer in TZM.bl cells [3] of 0.102 µg/mL, an IC80, neutralization titer in TZM.bl cells [3] of 0.43 µg/mL and an MPI, neutralization in TZM.bl cells [3] of 100. For the same substance, the IC50, neutralization titer in TZM.bl cells [4] was 0.221 µg/mL, the IC80, neutralization titer in TZM.bl cells [4] was 1.04 µg/mL and the MPI, neutralization in TZM.bl cells [4] was 100. The IC50, neutralization titer in TZM.bl cells [5] was 0.158 µg/mL, the IC80, neutralization titer in TZM.bl cells [5] was 0.509 µg/mL and the MPI, neutralization in TZM.bl cells [5] was 100. For the same substance, the IC50, neutralization titer in TZM.bl cells [6] was 0.025 µg/mL, the IC80, neutralization titer in TZM.bl cells [6] was 0.069 µg/mL and the MPI, neutralization in TZM.bl cells [6] was 100. The neutralization IC50 [7] was 0.16 µg/mL, the neutralization IC80 [7] was 0.55 µg/mL and the neutralization MPI [7] was 100. It also gave an IC50, neutralization titer in TZM.bl cells [8] of 0.716 µg/mL, an IC80, neutralization titer in TZM.bl cells [8] of 3.73 µg/mL and an MPI, neutralization in TZM.bl cells [8] of 99. The IC50, neutralization titer in TZM.bl cells [9] was 0.047 µg/mL, the IC80, neutralization titer in TZM.bl cells [9] was 0.222 µg/mL and the MPI, neutralization in TZM.bl cells [9] was 100. The neutralization IC50 [10] was 0.457 µg/mL, the neutralization IC80 [10] was 1.73 µg/mL and the neutralization MPI [10] was 100. It also gave an IC50, neutralization titer in TZM.bl cells [11] of 0.031 µg/mL, an IC80, neutralization titer in TZM.bl cells [11] of 0.113 µg/mL and an MPI, neutralization in TZM.bl cells [11] of 100. For the same substance, the IC50, neutralization titer in TZM.bl cells [12] was 11.7 µg/mL, the IC80, neutralization titer in TZM.bl cells [12] was 33.2 µg/mL and the MPI, neutralization in TZM.bl cells [12] was 92. For the same substance, the IC50, neutralization titer in TZM.bl cells [13] was 2 µg/mL, the IC80, neutralization titer in TZM.bl cells [13] was 14.7 µg/mL and the MPI, neutralization in TZM.bl cells [13] was 96. For the same substance, the IC50, neutralization titer in TZM.bl cells [14] was 0.229 µg/mL, the IC80, neutralization titer in TZM.bl cells [14] was 0.992 µg/mL and the MPI, neutralization in TZM.bl cells [14] was 100. It also gave an IC50, neutralization titer in TZM.bl cells [15] of 18.4 µg/mL, an IC80, neutralization titer in TZM.bl cells [15] of 38.9 µg/mL and an MPI, neutralization in TZM.bl cells [15] of 91. The IC50, neutralization titer in TZM.bl cells [16] was 21.6 µg/mL, the IC80, neutralization titer in TZM.bl cells [16] was over 50 µg/mL and the MPI, neutralization in TZM.bl cells [16] was 80. The IC50, neutralization titer in TZM.bl cells [17] was 0.108 µg/mL, the IC80, neutralization titer in TZM.bl cells [17] was 0.645 µg/mL and the MPI, neutralization in TZM.bl cells [17] was 100. For the same substance, the IC50, neutralization titer in TZM.bl cells [18] was 0.113 µg/mL, the IC80, neutralization titer in TZM.bl cells [18] was 0.274 µg/mL and the MPI, neutralization in TZM.bl cells [18] was 100. For the same substance, the neutralization IC50 [19] was 0.052 µg/mL, the neutralization IC80 [19] was 0.21 µg/mL and the neutralization MPI [19] was 100. For the same substance, the neutralization IC50 [20] was 0.015 µg/mL, the neutralization IC80 [20] was 0.049 µg/mL and the neutralization MPI [20] was 100. It also gave an IC50, neutralization titer in TZM.bl cells [21] of 12 µg/mL, an IC80, neutralization titer in TZM.bl cells [21] of 40.4 µg/mL and an MPI, neutralization in TZM.bl cells [21] of 85. For the same substance, the IC50, neutralization titer in TZM.bl cells [22] was 0.081 µg/mL, the IC80, neutralization titer in TZM.bl cells [22] was 0.273 µg/mL and the MPI, neutralization in TZM.bl cells [22] was 100.

With N49P7.1 (antibody) the IC50, neutralization titer in TZM.bl cells [1] was 0.023 µg/mL, the IC80, neutralization titer in TZM.bl cells [1] was 0.064 µg/mL and the MPI, neutralization in TZM.bl cells [1] was 100. For the same substance, the IC50, neutralization titer in TZM.bl cells [2] was 0.106 µg/mL, the IC80, neutralization titer in TZM.bl cells [2] was 0.364 µg/mL and the MPI, neutralization in TZM.bl cells [2] was 100. The IC50, neutralization titer in TZM.bl cells [3] was 0.203 µg/mL, the IC80, neutralization titer in TZM.bl cells [3] was 0.705 µg/mL and the MPI, neutralization in TZM.bl cells [3] was 100. For the same substance, the IC50, neutralization titer in TZM.bl cells [4] was 0.559 µg/mL, the IC80, neutralization titer in TZM.bl cells [4] was 2.54 µg/mL and the MPI, neutralization in TZM.bl cells [4] was 100. For the same substance, the IC50, neutralization titer in TZM.bl cells [5] was 0.229 µg/mL, the IC80, neutralization titer in TZM.bl cells [5] was 0.772 µg/mL and the MPI, neutralization in TZM.bl cells [5] was 100. The IC50, neutralization titer in TZM.bl cells [6] was 0.041 µg/mL, the IC80, neutralization titer in TZM.bl cells [6] was 0.111 µg/mL and the MPI, neutralization in TZM.bl cells [6] was 100. The neutralization IC50 [7] was 0.191 µg/mL, the neutralization IC80 [7] was 0.647 µg/mL and the neutralization MPI [7] was 100. For the same substance, the IC50, neutralization titer in TZM.bl cells [8] was 1.48 µg/mL, the IC80, neutralization titer in TZM.bl cells [8] was 8.36 µg/mL and the MPI, neutralization in TZM.bl cells [8] was 97. For the same substance, the IC50, neutralization titer in TZM.bl cells [9] was 0.078 µg/mL, the IC80, neutralization titer in TZM.bl cells [9] was 0.366 µg/mL and the MPI, neutralization in TZM.bl cells [9] was 100. It also gave a neutralization IC50 [10] of 0.509 µg/mL, a neutralization IC80 [10] of 1.95 µg/mL and a neutralization MPI [10] of 100. It also gave an IC50, neutralization titer in TZM.bl cells [11] of 0.056 µg/mL, an IC80, neutralization titer in TZM.bl cells [11] of 0.192 µg/mL and an MPI, neutralization in TZM.bl cells [11] of 100. The IC50, neutralization titer in TZM.bl cells [12] was 14.7 µg/mL, the IC80, neutralization titer in TZM.bl cells [12] was over 50 µg/mL and the MPI, neutralization in TZM.bl cells [12] was 75. For the same substance, the IC50, neutralization titer in TZM.bl cells [13] was 1.15 µg/mL, the IC80, neutralization titer in TZM.bl cells [13] was 16 µg/mL and the MPI, neutralization in TZM.bl cells [13] was 92. It also gave an IC50, neutralization titer in TZM.bl cells [14] of 0.321 µg/mL, an IC80, neutralization titer in TZM.bl cells [14] of 1.46 µg/mL and an MPI, neutralization in TZM.bl cells [14] of 100. The IC50, neutralization titer in TZM.bl cells [15] was 26.3 µg/mL, the IC80, neutralization titer in TZM.bl cells [15] was over 50 µg/mL and the MPI, neutralization in TZM.bl cells [15] was 71. The IC50, neutralization titer in TZM.bl cells [16] was 41.6 µg/mL, the IC80, neutralization titer in TZM.bl cells [16] was over 50 µg/mL and the MPI, neutralization in TZM.bl cells [16] was 58. For the same substance, the IC50, neutralization titer in TZM.bl cells [17] was 0.232 µg/mL, the IC80, neutralization titer in TZM.bl cells [17] was 1.07 µg/mL and the MPI, neutralization in TZM.bl cells [17] was 100. It also gave an IC50, neutralization titer in TZM.bl cells [18] of 0.216 µg/mL, an IC80, neutralization titer in TZM.bl cells [18] of 0.494 µg/mL and an MPI, neutralization in TZM.bl cells [18] of 100. For the same substance, the neutralization IC50 [19] was 0.077 µg/mL, the neutralization IC80 [19] was 0.208 µg/mL and the neutralization MPI [19] was 100. For the same substance, the neutralization IC50 [20] was 0.022 µg/mL, the neutralization IC80 [20] was 0.088 µg/mL and the neutralization MPI [20] was 100. It also gave an IC50, neutralization titer in TZM.bl cells [21] of 17.9 µg/mL, an IC80, neutralization titer in TZM.bl cells [21] of over 50 µg/mL and an MPI, neutralization in TZM.bl cells [21] of 65. The IC50, neutralization titer in TZM.bl cells [22] was 0.129 µg/mL, the IC80, neutralization titer in TZM.bl cells [22] was 0.431 µg/mL and the MPI, neutralization in TZM.bl cells [22] was 100.
